Data on ten molecules can be found in PMC7118173 (Nature Communications, 2020).

Data set [1] concerns SepF. In words: Western blots of whole-cell extracts (SepF depletion / expression). In kind it is cell-based, C. glutamicum. Particulars: Pino-sepF strain, 1% myo-inositol. As for the experimental part:
24 homogenizer. Crude extracts (120 μg) were analyzed by SDS-PAGE, electro-transferred onto a 0.2 μm Nitrocellulose membrane and blocked with 5% (w/v) skimmed milk. Membranes were incubated with an anti-SepF antibody (produced by Covalab, Supplementary Fig. 25a), an anti-FtsZ antibody (produced by Proteogenix, Supplementary Fig. 25b) or an anti-mNeonGreen antibody (purchased from Chromotek) for 1 h at room temperature.

The subject of data set [2] is Pino-sepF strain. In words: Growth curves / complementation of the Pino-sepF strain.
Procedure: Positive colonies were grown in BHI media supplemented with 25 µg/ml kanamycin overnight at 30 °C and 120 rpm shaking.
All strains were plated in CGXII media plates with 4% (w/v) sucrose as a carbon source for 2 days at 30 °C and then single colonies were inoculated in 10 ml of CGXII media 4% (w/v) sucrose overnight at 30 °C and 120 rpm shaking. The next day, 20 ml of CGXII media supplemented with the appropriate repressor or inducer were inoculated with the overnight cultures to a starting OD600 of 1. OD600 measurements were taken every 1.5 h. Each growth curve represents the average of three different growth curves originally from three different single colonies. […] When required, CGXII media 4% (w/v) sucrose was supplemented with either 1% (w/v) myo-inositol, 50 ng/ml tetracycline or 1% (w/v) gluconate and 25 μg/ml kanamycin.
The subject of data set [3] is C. glutamicum ATCC13032 whole-cell extracts. Put plainly: SepF and FtsZ quantification by Western blot. In kind it is cell-based, Corynebacterium glutamicum. The note with it: 60 ugr loaded. Background: In western blotting, separated proteins are transferred to a membrane and probed.
For data set [4], the target named is T1, His6-Sumo tagged SepF_(ΔML,F131A) (Corynebacterium glutamicum, UniProt Q8NNN6 63-152, F131A).
T1 construct: SepF (cg2363), Corynebacterium glutamicum, amino acids 63 to 152 with F131A; also called SepF_(F131A); source: E. coli BL21 (DE3), purified (Ni-NTA, dialysed directly without SUMO protease for SPR); not shown: His6, N-terminal, kept; SUMO, N-terminal, kept
T1 sequence (looked up): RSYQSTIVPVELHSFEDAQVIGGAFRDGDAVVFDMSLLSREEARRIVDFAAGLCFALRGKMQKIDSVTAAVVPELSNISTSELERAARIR
Put plainly: SPR; Biacore T200, 25 °C, 25 mM HEPES pH 8, 150 mM KCl, 0.1 mM EDTA; His6-Sumo SepF variants covalently immobilised on NTA chips (3000-4000 RU); FtsZCTD 1.56 to 400 µM injected; steady-state fit; apparent Kd. Particulars: both partners purified. (In general: Surface plasmon resonance follows binding to a sensor surface in real time, without labels.)

Data set [5] has as its target T2, His6-Sumo tagged SepFΔML (Corynebacterium glutamicum, UniProt Q8NNN6 63-152).
T2 construct: SepF (cg2363), Corynebacterium glutamicum, amino acids 63 to 152; Covalently immobilised on an NTA sensor chip; also called immobilized SepF; source: E. coli BL21 (DE3), purified (Ni-NTA, dialysed directly without SUMO protease for SPR); not shown: His6, N-terminal, kept; SUMO, N-terminal, kept
T2 sequence (looked up): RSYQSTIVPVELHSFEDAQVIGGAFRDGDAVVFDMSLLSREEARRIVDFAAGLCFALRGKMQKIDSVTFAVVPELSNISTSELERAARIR
The description is as above. Particulars: both partners purified.

Data set [6] concerns the molecule itself. In words: crystal structure; SepF_(ΔML,Δα3) 17 mg/ml alone, 0.1 M MES pH 6, 20% PEG MME 2000, 0.2 M NaCl, 18 °C.
Data set [7] is described as follows: Negative stain EM of SepF rings. Format: physicochemical. Particulars: 50 μM, 50 mM HEPES pH 7.4, 300 mM KCl, 10 mM MgCl2. The procedure: For all samples, 400 mesh carbon coated grids (Electron Microscopy Sciences; CF 400-Cu) were glow-discharged on an ELMO system for 30 sec at 2 mA. 5 µl samples were applied onto the grids and incubated for 30 s, the sample was blotted, washed in 3 drops of water and then stained with 2% (weight/vol) uranyl acetate. Images were recorded on a Gatan UltraScan4000 charged coupled device (CCD) camera (Gatan) on a Tecnai T12 BioTWINLaB6 electron microscope operating at a voltage of 120 kV.

Data set [8] concerns the molecule itself. Put plainly: turbidity + dynamic light scattering; SepF or SepF mutant with SUVs (POPC:POPG 8:2), 50 µM each, 100 mM KCl, 10 mM MgCl2, 25 mM Pipes pH 6.9, 25 °C.
Data set [9] relates to WT C. glutamicum. Put plainly: Number of ring-like structures per cell, overexpression in WT. In kind it is cell-based, Corynebacterium glutamicum.
Data set [10] deals with Pino-sepF strain. In words: Cell length distribution (violin plots), Pino-sepF strains. Format: cell-based, Corynebacterium glutamicum.
Procedure: For imaging, cultures of C. glutamicum were grown in BHI or minimal medium CGXII during the day, and washed and inoculated into CGXII media for overnight growth. The following day cultures were diluted to OD600 = 1 and grown to the required OD (early exponential phase) for imaging. For HADA labeling, cultures were incubated with 0.5 mM HADA for 20 min at 30 °C in the dark. Two percent agarose pads were prepared with the corresponding growth medium and cells were visualized using a Zeiss Axio Observer Z1 microscope fitted with an Orca Flash 4 V2 sCMOS camera (Hamamatsu), and a Pln-Apo 63×/1.4 oil Ph3 objective. Images were collected using Zen Blue 2.6 (Zeiss) and analyzed using the software Fiji[70] and the plugin MicrobeJ[71] to generate violin plots and fluorescent intensity heatmaps. […] The experiments were performed as biological triplicates.
Data set [11] concerns the molecule itself. In words: crystal structure; SepFΔML 10 mg/ml with FtsZCTD 5.8 mg/ml (1:5 molar ratio), 100 mM sodium acetate pH 4.6, 30% PEG 4000, 18 °C; 1.6 Å.
Data set [12] is described as follows: Dynamic light scattering. In kind it is physicochemical. Particulars: protein alone. The procedure: Polydispersity of the samples was measured using Dyna-pro Plate Reader (Wyatt technology) equipped with an 830 nm laser and a temperature control module. The Dynamics software (version 7.9) was used to schedule data acquisition and data analysis. For each well, 20 measurements of 10 s were averaged and this operation was repeated 20 times for each condition at 25 °C. For samples containing FtsZCTD, the peptide was used at a final concentration of 100 µM. All the experiments were carried out as minimum three biological and technical replicates.

Data set [13] is described as follows: Negative stain EM of SUVs with SepF. The note with it: SepFΔα3 + SUVs, upon addition of FtsZCTD. Format: biochemical.
Data set [14] has as its system SepF. Put plainly: SepF polymerization (turbidity) assay in the presence of SUVs. Particulars: SepF (or mutant) plus SUVs 50 µM each, pH 6.9, 25 °C. In kind it is biochemical, C. glutamicum. As for the experimental part: When used, FtsZCTD was added at a final concentration of 100 μM.
Reverse phase evaporation was used to prepare small unilamellar vesicles (SUVs). A 10 mM lipid solution made of an 8:2 mixture of 1-palmitoyl-2-oleoyl phosphatidylcholine (POPC) and 1-palmitoyl-2-oleoylglycero-3-phosphoglycerol (POPG) (Avanti Polar Lipids) was prepared as described. Chloroform was removed by evaporation under vacuum conditions and the dried phospholipid film was resuspended in a mixture of diethyl ether and buffer (25 mM Hepes pH 7.4, 10 mM MgCl2 and 150 mM KCl). Diethyl ether was eliminated by reverse phase evaporation and by slowly decreasing the pressure to the vacuum. SUVs were obtained by sonication during 30 min at 4 °C. The diameter and charge of SUV were determined by measuring dynamic light scattering (DLS) and electrophoretic mobility profiles on a Zetasizer Nano instrument (Malvern Instruments).

On to `O[C@H]1[C@H](O)[C@@H](O)[C@H](O)[C@@H](O)[C@H]1O` [myo-inositol, reference compound], for which the SepF protein level result in data set [1] is “rapid depletion of SepF”. In addition, in data set [2] (1% myo-inositol, after the first 6 h), the “growth of Pino-sepF” value is given as “growth stopped for the depleted strain”.

Turning to FtsZ: C. glutamicum FtsZ (cg2366), the “band volume in whole-cell extract” value in data set [3] (ON S (over-night, sucrose)) was determined as 14.8379; in [3] (ON S+G (over-night, sucrose + gluconate)), 18.4228; in data set [3] (T6 S (6 h, sucrose)), 20.1825; in data set [3] (T6 S+G (6 h, sucrose + gluconate)), 23.8045.

B1: FtsZCTD peptide (conserved C-terminal domain of C. glutamicum FtsZ, 10 residues) (peptide)
peptide: DDLDVPSFLQ
notes: C-terminal 10 residues of FtsZ (cg2366), Corynebacterium glutamicum; the printed residues D436, P438 and F440 place the peptide at 433-442; also called FtsZ C-terminal domain peptide; source: synthetic peptide, bought: Genosphere
Turning to B1, the Kd was found to be 340 µM in [4] and 15 µM in data set [5].

B2: SepF_(ΔML,Δα3) (domain or fragment, Corynebacterium glutamicum, UniProt Q8NNN6 63-137, looked up)
chain: RSYQSTIVPVELHSFEDAQVIGGAFRDGDAVVFDMSLLSREEARRIVDFAAGLCFALRGKMQKIDSVTFAVVPEL
notes: SepF (cg2363), Corynebacterium glutamicum, amino acids 63 to 137 (core domain without the C-terminal helix α3); Dimers associate into linear polymers in the crystals; source: E. coli BL21 (DE3), purified (Ni-NTA, SUMO protease, SEC); not shown: His6, N-terminal, cleaved; SUMO, N-terminal, cleaved
For B2, the binding result in [6] is on record as “binds”.

B3: M. tuberculosis SepFΔML (domain or fragment)
chain: EDGHPLSKITTLRPKDYSEARTIGERFRDGSPVIMDLVSMDNADAKRLVDFAAGLAFALRGSFDKVATKVFLLSPADVDVSPEERRRIAETGFYAYQ
notes: also called MtbSepFΔML
Regarding B3, the ring diameter in data set [7] was ~ 40 nm.

B4: full-length C. glutamicum SepF (recombinant) (natural protein, Corynebacterium glutamicum, UniProt Q8NNN6 1-152, looked up)
chain: MSMLKKTKEFFGLAPYEAEHEDAYYADEPRYEGTAAYAPEYRERDYGYAPEAPAPVAPSPAPRSYQSTIVPVELHSFEDAQVIGGAFRDGDAVVFDMSLLSREEARRIVDFAAGLCFALRGKMQKIDSVTFAVVPELSNISTSELERAARIR
notes: SepF (cg2363), Corynebacterium glutamicum, full length; source: E. coli BL21 (DE3), purified (Ni-NTA, SUMO protease, SEC); not shown: His6, N-terminal, cleaved; SUMO, N-terminal, cleaved
With B4, the binding result in [8] is given as “binds”.

B5: SepF-Scarlet: mScarlet-I fused on the C-terminal side of SepF (protein)
chain: MSMLKKTKEFFGLAPYEAEHEDAYYADEPRYEGTAAYAPEYRERDYGYAPEAPAPVAPSPAPRSYQSTIVPVELHSFEDAQVIGGAFRDGDAVVFDMSLLSREEARRIVDFAAGLCFALRGKMQKIDSVTFAVVPELSNISTSELERAARIR
modifications: left off: mScarlet-I, C-terminal, kept
For B5, the “frequency of cells with n septa (ring-like structures)” value (shortened to “frequency of cells with n septa”) is on record as 0.369 in [9] (n septa 0, replicate 1); 0.283 in data set [9] (n septa 0, replicate 2); 0.282 in data set [9] (n septa 0, replicate 3); 0.513 in data set [9] (n septa 1, replicate 1); 0.547 in data set [9] (n septa 1, replicate 2); 0.565 in data set [9] (n septa 1, replicate 3). Also, the “frequency of cells with n septa” value in [9] (n septa 2, replicate 1) is on record as 0.104; in data set [9] (n septa 2, replicate 2), 0.153; in [9] (n septa 2, replicate 3), 0.127; in data set [9] (n septa 3, replicate 1), 0.014; in [9] (n septa 3, replicate 2), 0.017; in [9] (n septa 3, replicate 3), 0.025. The “frequency of cells with n septa” value in data set [9] (n septa 4, replicate 1) is reported as 0; in [9] (n septa 4, replicate 2), 0; in data set [9] (n septa 4, replicate 3), 0; in [9] (n septa 5, replicate 1) it was 0; in [9] (n septa 5, replicate 2), 0; in [9] (n septa 5, replicate 3) it was 0. For the same molecule, the “frequency of cells with n septa” value turned out to be 0 in data set [9] (n septa 6, replicate 1); 0 in data set [9] (n septa 6, replicate 2); 0 in data set [9] (n septa 6, replicate 3); 0 in [9] (n septa 7, replicate 1); 0 in data set [9] (n septa 7, replicate 2); 0 in data set [9] (n septa 7, replicate 3). Moreover, the “ring-like structures per cell” value in data set [9] (overexpression in WT background) is listed as “mostly single rings at mid-cell”. Also, the mean cell length in data set [10] (1% myo-inositol + 1% gluconate, t = 6, replicate 1, listed as PgntK_SepF_Scarlet) came to 5.38. Moreover, in data set [10] (PgntK, compared with control cells), the “cell elongation on complementation” value was “cells were more elongated than control cells”. Besides, the “complementation of SepF depletion (growth)” value in data set [2] (SepF depletion with 1% myo-inositol, exogenous construct induced) was “complemented the SepF depletion strain for growth”.

B6: C. glutamicum SepF C-terminal core domain (SepFΔML), tag removed (domain or fragment, Corynebacterium glutamicum, UniProt Q8NNN6 63-152, looked up)
chain: RSYQSTIVPVELHSFEDAQVIGGAFRDGDAVVFDMSLLSREEARRIVDFAAGLCFALRGKMQKIDSVTFAVVPELSNISTSELERAARIR
notes: Gene codon optimised and synthesised for E. coli; homodimer in the crystal; also called globular core of SepF; source: E. coli BL21 (DE3), purified (Ni-NTA, SUMO protease, SEC); not shown: His6, N-terminal, cleaved; SUMO, N-terminal, cleaved
As for B6, in data set [11], the binding result is recorded as “binds”.

B7: SepFΔα3 (domain or fragment, Corynebacterium glutamicum, UniProt Q8NNN6 1-137, looked up)
chain: MSMLKKTKEFFGLAPYEAEHEDAYYADEPRYEGTAAYAPEYRERDYGYAPEAPAPVAPSPAPRSYQSTIVPVELHSFEDAQVIGGAFRDGDAVVFDMSLLSREEARRIVDFAAGLCFALRGKMQKIDSVTFAVVPEL
notes: SepF (cg2363), Corynebacterium glutamicum, amino acids 1 to 137 (without the C-terminal helix α3); source: E. coli BL21 (DE3), purified (Ni-NTA, SUMO protease, SEC); not shown: His6, N-terminal, cleaved; SUMO, N-terminal, cleaved
For B7, in [8], the binding result is reported as “binds”.

B8: SepFΔα3: SepF amino acids 1 to 137, lacking the regulatory C-terminal helix (protein)
chain: MSMLKKTKEFFGLAPYEAEHEDAYYADEPRYEGTAAYAPEYRERDYGYAPEAPAPVAPSPAPRSYQSTIVPVELHSFEDAQVIGGAFRDGDAVVFDMSLLSREEARRIVDFAAGLCFALRGKMQKIDSVTFAVVPEL
modifications: left off: His6, N-terminal, cleaved | SUMO, N-terminal, cleaved
In the case of B8, the “dispersity by DLS” value in [12] was “monodisperse”. Also, in [13], the “reversal by FtsZCTD of particle formation and vesicle tubulation” value is given as “only partially reversed”. For the same molecule, the “polymerization with SUVs (turbidity)” value in data set [14] was “polymerization and vesicle tubulation were also seen but could only be partially reversed”.
